Measured values taken from CN114592010A.

Target: NK细胞自身的IL-15受体(IL15Rβγ) (UniProt P14784)
Assay: cell-based or functional assay

Chain of UniProt P14784 (P14784 27-551 limits assumed, chain 1 of 2): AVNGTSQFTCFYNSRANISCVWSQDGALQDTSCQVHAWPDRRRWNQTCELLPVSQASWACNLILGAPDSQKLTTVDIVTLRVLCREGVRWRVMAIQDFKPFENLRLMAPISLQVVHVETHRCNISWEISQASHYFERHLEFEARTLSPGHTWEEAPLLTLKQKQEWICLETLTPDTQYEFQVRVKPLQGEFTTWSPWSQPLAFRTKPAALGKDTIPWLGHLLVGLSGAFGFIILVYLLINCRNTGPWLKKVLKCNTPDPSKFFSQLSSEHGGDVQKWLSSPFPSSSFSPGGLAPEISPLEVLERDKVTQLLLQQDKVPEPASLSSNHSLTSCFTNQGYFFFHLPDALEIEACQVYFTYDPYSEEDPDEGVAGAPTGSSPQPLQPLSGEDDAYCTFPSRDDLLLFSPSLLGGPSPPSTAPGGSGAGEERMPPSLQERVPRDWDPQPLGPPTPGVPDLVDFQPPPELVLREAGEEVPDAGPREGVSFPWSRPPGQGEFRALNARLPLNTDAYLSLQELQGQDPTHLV
Chain of UniProt P14784 (P31785 23-369 limits assumed, chain 2 of 2, further chain): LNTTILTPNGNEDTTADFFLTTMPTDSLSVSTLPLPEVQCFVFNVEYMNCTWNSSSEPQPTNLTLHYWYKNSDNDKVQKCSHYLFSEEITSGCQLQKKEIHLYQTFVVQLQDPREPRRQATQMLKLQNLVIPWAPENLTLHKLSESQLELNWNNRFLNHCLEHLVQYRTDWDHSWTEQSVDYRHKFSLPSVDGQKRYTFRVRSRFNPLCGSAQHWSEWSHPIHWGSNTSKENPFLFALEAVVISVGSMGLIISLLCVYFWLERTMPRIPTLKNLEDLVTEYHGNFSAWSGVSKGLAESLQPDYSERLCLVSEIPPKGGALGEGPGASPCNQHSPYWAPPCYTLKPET

增殖效果 (CCK8), NKMB cells = 实施例3 NK-CAR(NK-CAR)-MbIL-15, 1d (relative to 0d = 1): 1.66
增殖效果 (CCK8), NKMB cells = 实施例3 NK-CAR(NK-CAR)-MbIL-15, 2d (relative to 0d = 1): 2.37
增殖效果 (CCK8), NKMB cells = 实施例3 NK-CAR(NK-CAR)-MbIL-15, 3d (relative to 0d = 1): 2.83
增殖效果 (CCK8), NKMB cells = 实施例3 NK-CAR(NK-CAR)-MbIL-15, 4d (relative to 0d = 1): 4.12
增殖效果 (CCK8), TMB cells = 实施例4 NK-CAR(T-CAR)-MbIL-15, 1d (relative to 0d = 1): 1.67
增殖效果 (CCK8), TMB cells = 实施例4 NK-CAR(T-CAR)-MbIL-15, 2d (relative to 0d = 1): 2.7
增殖效果 (CCK8), TMB cells = 实施例4 NK-CAR(T-CAR)-MbIL-15, 3d (relative to 0d = 1): 3.63
增殖效果 (CCK8), TMB cells = 实施例4 NK-CAR(T-CAR)-MbIL-15, 4d (relative to 0d = 1): 7.77
Substance: 膜结合型IL-15 (IL-15-CD8 hinge-CD8 TM融合蛋白) (ligand)
